Laboratory results published in the Immune Epitope Database (IEDB).

Tests used:
HLA-A*02:01 [1] = test: IEDB peptide-MHC binding, purified MHC/competitive/fluorescence; filed as Kd, often an IC50 or EC50 that approximates it; ≥ and ≤ were set here for values at or beyond the usual limits of such assays
HLA-A*02:03 = test: as above
HLA-A*02:11 = test: as above
HLA-A*02:12 = test: as above
HLA-A*02:16 = test: as above
HLA-A*02:19 = test: as above
HLA-A*03:01 = test: as above
HLA-A*26:01 = test: as above
HLA-A*29:02 = test: as above
HLA-A*68:02 = test: as above; conditions: source organism: Vibrio cholerae 2740-80
HLA-A*69:01 = test: as above; conditions: source organism: Vibrio cholerae 2740-80
HLA-B*15:01 = test: as above
HLA-B*18:01 = test: as above
HLA-B*27:03 = test: as above
HLA-B*39:01 = test: as above
HLA-B*46:01 = test: as above
HLA-B*51:01 = test: as above
HLA-B*57:01 = test: as above
HLA-A*24:03 = test: as above; conditions: source organism: Mycobacterium tuberculosis variant bovis BCG str. Pasteur 1173P2
HLA-A*02:01 [2] = test: IEDB peptide-MHC binding, purified MHC/direct/fluorescence; filed as Kd, often an IC50 or EC50 that approximates it; ≥ and ≤ were set here for values at or beyond the usual limits of such assays; conditions: source organism: Human herpesvirus 4 strain B95-8
HLA-A*32:15 = test: IEDB peptide-MHC binding, purified MHC/competitive/fluorescence; filed as Kd, often an IC50 or EC50 that approximates it; ≥ and ≤ were set here for values at or beyond the usual limits of such assays; conditions: source organism: human gammaherpesvirus 4
HLA-A*68:23 = test: as above; conditions: source organism: human gammaherpesvirus 4
HLA-B*15:42 = test: as above; conditions: source organism: human gammaherpesvirus 4
HLA-B*45:06 = test: as above; conditions: source organism: human gammaherpesvirus 4
HLA-B*83:01 = test: as above; conditions: source organism: human gammaherpesvirus 4
HLA-C*05:01 = test: IEDB peptide-MHC binding, purified MHC/direct/fluorescence; filed as Kd, often an IC50 or EC50 that approximates it; ≥ and ≤ were set here for values at or beyond the usual limits of such assays; conditions: source organism: Vibrio antiquarius
HLA-C*06:02 = test: as above; conditions: source organism: Vibrio antiquarius
HLA-B*58:01 = test: IEDB peptide-MHC binding, purified MHC/competitive/fluorescence; filed as Kd, often an IC50 or EC50 that approximates it; ≥ and ≤ were set here for values at or beyond the usual limits of such assays; conditions: source organism: Vibrio antiquarius
[3] = source organism: Vibrio cholerae 2740-80
[4] = source organism: Mycobacterium tuberculosis variant bovis BCG str. Pasteur 1173P2
[5] = source organism: Vibrio antiquarius

CERYGFPAS was tested, and the Kd (HLA-A*02:01 [1]; [3]) was ≥ 20 µM, the Kd (HLA-A*02:03; [3]) was ≥ 20 µM and the Kd (HLA-A*02:11; [3]) was ≥ 20 µM. For the same sequence, the Kd (HLA-A*02:12; [3]) was ≥ 20 µM, the Kd (HLA-A*02:16; [3]) was ≥ 20 µM and the Kd (HLA-A*02:19; [3]) was ≥ 20 µM. The Kd (HLA-A*03:01; [3]) was ≥ 20 µM, the Kd (HLA-A*26:01; [3]) was ≥ 20 µM and the Kd (HLA-A*29:02; [3]) was ≥ 20 µM. For the same sequence, the Kd (HLA-A*68:02) was ≥ 20 µM, the Kd (HLA-A*69:01) was ≥ 20 µM and the Kd (HLA-B*15:01; [3]) was ≥ 20 µM. The Kd (HLA-B*18:01; [3]) was 0.0433 µM, the Kd (HLA-B*27:03; [3]) was ≥ 20 µM and the Kd (HLA-B*39:01; [3]) was ≥ 20 µM. The Kd (HLA-B*46:01; [3]) was ≥ 20 µM, the Kd (HLA-B*51:01; [3]) was ≥ 20 µM and the Kd (HLA-B*57:01; [3]) was ≥ 20 µM.

DEGFHAATV was tested, and the Kd (HLA-A*02:01 [1]; [4]) was ≥ 20 µM, the Kd (HLA-A*02:03; [4]) was ≥ 20 µM and the Kd (HLA-A*02:11; [4]) was ≥ 20 µM. The Kd (HLA-A*02:12; [4]) was ≥ 20 µM, the Kd (HLA-A*02:16; [4]) was ≥ 20 µM and the Kd (HLA-A*02:19; [4]) was ≥ 20 µM. The Kd (HLA-A*03:01; [4]) was ≥ 20 µM, the Kd (HLA-A*24:03) was ≥ 20 µM and the Kd (HLA-A*26:01; [4]) was ≥ 20 µM. For the same sequence, the Kd (HLA-A*29:02; [4]) was ≥ 20 µM, the Kd (HLA-B*15:01; [4]) was ≥ 20 µM and the Kd (HLA-B*18:01; [4]) was 0.0788 µM. For the same sequence, the Kd (HLA-B*27:03; [4]) was ≥ 20 µM, the Kd (HLA-B*39:01; [4]) was ≥ 20 µM and the Kd (HLA-B*46:01; [4]) was ≥ 20 µM. The Kd (HLA-B*57:01; [4]) was ≥ 20 µM.

For EVFFGLSRY, the Kd (HLA-A*02:01 [2]) was ≥ 10 µM, the Kd (HLA-A*32:15) was 0.0269 µM and the Kd (HLA-A*68:23) was ≤ 0.0001 µM. For the same sequence, the Kd (HLA-B*15:42) was ≥ 5 µM, the Kd (HLA-B*45:06) was ≥ 5 µM and the Kd (HLA-B*83:01) was ≥ 5 µM.

With FAMTVPLLI the Kd (HLA-C*05:01) was ≤ 0.001 µM, the Kd (HLA-C*06:02) was 0.026 µM and the Kd (HLA-A*02:01 [1]; [5]) was 0.0027 µM. For the same sequence, the Kd (HLA-B*15:01; [5]) was ≥ 20 µM, the Kd (HLA-B*39:01; [5]) was 0.009 µM and the Kd (HLA-B*51:01; [5]) was 0.126 µM. It also gave a Kd (HLA-B*58:01) of 0.0014 µM.
